{
  "source": "paper PMC8993113",
  "assay": "two-colour ID-FRAP, CHO-K1 large ER inclusions",
  "conditions": "glycan lost; control: YFP-Z coexpressed with HaloTag-CRT",
  "data": [
    {"substance": "Z-α1-antitrypsin: YFP-ZN46A,N83A,N247A (GlycMut)", "values": [
      {"measurement": "other: calreticulin-driven immobilisation in ER inclusions, other: % cells with immobile YFP-Z", "result": "abolishes"}
    ]}
  ]
}
